Patent US9603896B2, “Peptide compounds and methods of production and use thereof” (priority 2012, dated 2017)
Ends that are not written are not given here.

What was measured:
[1] = test system: Pseudomonas clinical isolate B64; experiment: BIOSCREEN C™ growth assay, antibiotic and peptide combinations; type: cell-based, Pseudomonas aeruginosa
Experimental: Cefotaxime (Cefo) and peptide combinations included a constant amount of Cefotaxime (2.81 μg/ml) with suboptimal amounts of peptide (0, 0.34, 1.01, and 3.04 μg/ml).
The peptide and antibiotics were set up in the wells of the microtiter plate at starting ratios of MIC equivalents of antibiotic:peptide at 3:1, 1:1, and 1:3. They were serially diluted to concentrations well below suboptimal/sublethal levels of the antibiotic and peptide. The organism was added (1×10^5 CFU/well), the BIOSCREEN C™ assay (Growth Systems USA, Piscataway, N.J.) was performed, and data was collected over 24 hours.

[2] = type: physicochemical
Source text: In the initial stages of the work leading to the presently disclosed and claimed inventive concept(s), sequential addition of amino acids was used to make the peptides. Three candidate peptides (CAP3720-44 (SEQ ID NO:1), CAP3720-44ser26 (SEQ ID NO:2), and CAP3720-44ser42 (SEQ ID NO:5)) were synthesized. […] In one embodiment, a fragment Fmoc condensation strategy was used rather than sequential addition of amino acids. In the fragment condensation method, three small fragments were made and condensed together to form a CAP3720-44ser42 amino acid sequence (SEQ ID NO:5). The rationale behind this reasoning was that three small fragments could be synthesized in a highly purified form and linked together, thereby overcoming some of the aggregation problems. The product from this synthesis was dialyzed against 1% acetic acid and lyophilized and determined to be approximately 50% pure. Antimicrobial activity of this peptide was approximately half of what was normally obtained. In one embodiment, the dialysis procedure was changed to employ a dilute tri-fluoro acetic acid (TFA) solution (e.g., 0.1%), which obtained a product with stronger antimicrobial activity and greater purity (about 80%). In the next production, a cysteine residue was used that was protected during synthesis and then de-protected in the final stages of purification, in an attempt to improve stability.
When the arginines were linked to the peptide to form the peptide backbone (SEQ ID NOs: 18-20), there was marked increase in solubility of the peptides and very potent activity (capable of reducing bacterial load from 1×10^6 CFU/ml to […] CFU/ml, a 5 log reduction). […] Much time and experimental effort was spent in the laboratory exploring purification techniques, but yield and purity could not be increased beyond about 70%. […] Finally, after extensive additional experimentation, another solubilizing moiety was added to the peptides, and this addition increased half-life, solubility, and purity of the peptides. […]

[3] = test system: HCEC monolayers; experiment: In vitro scratch assay of wound closure in HCEC monolayers; type: cell-based, human
Experimental: An in vitro scratch assay was used in order to determine the ability of rCAP37 to facilitate corneal wound healing. Human corneal epithelial cells were cultured as described above until they reached a confluent monolayer. Each monolayer was scratched using a 10 μl pipette tip to create two perpendicular lines. Monolayers were treated with heparin binding-epidermal growth factor (HB-EGF, 250 ng/ml; Becton Dickinson), rCAP37 (25-2000 ng/ml), or basal KSFM (Gibco). Wound closure was monitored at 0, 18, 24, and 48 hours utilizing a camera-equipped inverted microscope (TE2000-E; Nikon, Melville, N.Y.). Time-lapse images of in vitro wound closure were obtained using a camera-equipped inverted microscope (TE2000-E; Nikon) from 0-18 hours. HCEC monolayers were treated with HB-EGF, rCAP37, and basal KSFM as described above. The width of each scratch was quantitated using ImageJ software (US National Institutes of Health, Bethesda, Md.). Results are presented as the percentage of wound closure.

[4] = test system: mouse cornea; experiment: In vivo model of corneal wound healing (corneal epithelial abrasion)
Experimental: The in vivo model of wound healing was carried out using a disposable biopsy punch (2 mm, Miltex, York, Pa.) to demarcate the mouse cornea and a 0.5 mm burr using the AlgerBrush II (The Alger Company, Inc., Lago Vista, Tex.) to remove the corneal epithelium. The corneal abrasions were treated at 0 and 16 hours with peptide 95-122 (10^−5 M), peptide 120-146WH (10^−6 M and 10^−8M), peptide 120-146WR ((10^−6 M and 10^−8M), or vehicle control (0.9% sodium chloride, pH 5.5, Baxter, Deerfield, Ill.). Corneal abrasions were visualized using sterile fluorescein sodium ophthalmic strips USP (Fluorets®, Chauvin Laboratory, Aubenas, France) dampened with sterile PBS. Images were taken at 0, 16, and 24 hours immediately following fluorescein staining.
Mice were anesthetized using ketamine (100 mg/kg; Bionichepharma, LLC., St. Lake Forrest, Ill.) and xylazine ([…]; Rompun; Bayer Corp., Shawnee Mission, Kans.), and the right cornea was wounded as follows. A disposable biopsy punch (2 mm, Miltex, York, Pa.) was used to demarcate the mouse cornea. The corneal epithelium was carefully removed within the 2 mm demarcated area with a 0.5 mm burr using the AlgerBrush II (The Alger Company, Inc., Lago Vista, Tex.). The corneal abrasions were treated at 0 and 16 hours with HB-EGF (250 ng/ml), rCAP37 (250 ng/ml), or vehicle control (0.9% sodium chloride, pH 5.5, Baxter, Deerfield, Ill.). Corneal abrasions were visualized using sterile fluorescein sodium ophthalmic strips USP (FLUORETS®, Chauvin Laboratory, Aubenas, France) dampened with sterile PBS. Images were taken at 0, 16, 24, and 48 hours immediately following fluorescein staining using a surgical microscope equipped with a camera (Carl Zeiss OPMI VISU 140, Carl Zeiss Surgical, Inc., Oberkochen, Germany). The areas of the open wound were quantitated using ImageJ software (US National Institutes of Health), and the results were reported as the percentage of wound closure.
Whole mouse eyes were collected for histology at 0, 6, 16, 24, and 48 hours post wounding and were immediately placed in Prefer fixative (Anatech LTD., Battle Creek, Mich.) for 20 minutes before being transferred to 70% ethanol. Tissues were paraffin-embedded and cut at a thickness of 5 μm, mounted on SUPERFROSTPLUS® slides (Statlab Medical Products, Lewisville, Tex.), and subsequently deparaffinized, rehydrated, and washed in deionized water. Sections were stained with hematoxylin (Leica Microsystems, Buffalo Grove, Ill.) and rinsed twice in deionized water before being washed in Blue Buffer (Leica Microsystems). The sections were finally washed in deionized water and 95% ethanol prior to being counterstained with eosin (Leica Microsystems). Sections were dehydrated in ethanol and cleared in xylene.

[5] = test system: human corneal epithelial cell (HCEC); experiment: HCEC chemotaxis, modified Boyden chemotaxis chamber assay; type: cell-based; details: 120-146QH at 10^−4, 10^−6, 10^−8, 10^−10 M; 120-146QR at 10^−6, 10^−8 M; HB-EGF 50 ng/ml; rCAP37 250 ng/ml; 3 hours at 37° C
Experimental: The effect of buffer control (0.1% BSA in Gey's buffer), heparin binding-epidermal growth factor (HB-EGF, 50 ng/ml), recombinant CAP37 (rCAP37, 250 ng/ml), 120-146QH (10^−12M, 10^−10 M, 10^−8 M, 10^−6M, and 10^−4M,) and 120-146QR (10^−10M, 10^−8M, 10^−6M, and 10^−4M) on HCEC chemotaxis was determined by the modified Boyden chemotaxis chamber method. HCEC chemotaxis was measured in response to HB-EGF, rCAP37, and peptides 120-146QH (SEQ ID NO:29) and 120-146QR (SEQ ID NO:28) after incubation for 3 hours at 37° C. Chemotaxis is expressed as a percent migration. The buffer control (no chemoattractant) is arbitrarily assigned the value of 100% migration. Data are expressed as means±SEM and are calculated from 6 observations for each test point. **P<0.01 by Wilcoxon signed-rank test as compared to controls.
Chemotaxis assays were performed using the modified Boyden chemotaxis chamber assay. Peptide 120-146QH was used at 10^−4 M, 10^−6 M, 10^−8 M, 10^−10 M, and 10^−12 M, and peptide 120-146QR was used at 10^−4 M, 10^−6M, 10^−8M, and 10^−10 M.

Q: Which “bactericidal impact of antibiotic alone” value ([1]; 2.8 μg/ml) does the source give for `CO/N=C(\C(=O)N[C@@H]1C(=O)N2C(C(=O)O)=C(COC(C)=O)CS[C@H]12)c1csc(N)n1` [Cefotaxime, reference compound] here?
A: very little bactericidal impact

Q: With `C[C@H]1COc2c(N3CCN(C)CC3)c(F)cc3c(=O)c(C(=O)O)cn1c23` [Levofloxacin, reference compound] as the molecule, how does the “MIC of Levofloxacin in combination with peptide” value ([1]; in the presence of 3.04 μg/ml of the peptide BCC02-5RMP) read?
A: 3.5 µg/mL

Q: With “NQGRHFCGGALIHARFVMTAASCFQ (listed as Homo sapiens) [CAP3720-44]” as the molecule, how does the solubility [2] read?
A: relatively insoluble

Q: Which solubility [2] does the source give for “NQGRHFCGGALIHARFVMTAASSFQ [CAP3720-44ser42]” here?
A: relatively insoluble

Q: Which solubility [2] does the source give for “NQGRHFSGGALIHARFVMTAASCFQ [CAP3720-44ser26]” here?
A: relatively insoluble

B1: heparin binding-epidermal growth factor (protein, UniProt Q99075 63-148, looked up)
Heparin-binding EGF-like …: DLQEADLDLLRVTLSSKPQALATPNKEEHGKRKKKGKGLGKKRDPCLRKYKDFCIHGECKYVKELRAPSCICHPGYHGERCHGLSL
notes: positive control growth factor
Q: With B1 as the molecule, how does the “time to complete closure of scratch wounds” value ([3]; 250 ng/ml) read?
A: ≤ 24 h

Q: What about the percentage wound closure ([3]; 250 ng/ml, at 18 hours) of the same molecule?
A: ~88%

Q: And the “closure of wounds compared to the buffer control” value ([4]; 250 ng/ml at 0 and 16 hours)?
A: significantly higher

Q: What about the “migration of HCECs vs buffer control” value [5] of the same molecule?
A: significant increase in migration

B2: CAP37: cationic antimicrobial protein of Mr 37 kDa; recombinant CAP37 produced in HEK 293 cells (protein)
chain: IVGGRKARPRQFPFLASIQNQGRHFCGGALIHARFVMTAASCFQSQNPGVSTVVLGAYDLRRRERQSRQTFSISSMSENGYDPQQNLNDLMLLQLDREANLTSSVTILPLPLQNATVEAGTRCQVAGWGSQRSGGRLSRFPRFVNVTVTPEDQCRPNNVCTGVLTRRGGICNGDGGTPLVCEGLAHGVASFSLGPCGRGPDFFTRVALFRDWIDGVLNNPGP
Q: For B2, which percentage wound closure ([3]; 250 ng/ml, at 18 hours) is on record?
A: ~71%

Q: And the percentage wound closure ([3]; 500 ng/ml)?
A: approximately 62%

Q: What about the “reduction of wound size (wound closure)” value ([4]; 16 hours, 250 ng/ml topical at 0 and 16 hours) of the same molecule?
A: 71%

Q: And the “re-epithelialization (H&E histology) vs vehicle-treated wounds” value ([4]; 24 hours, 250 ng/ml)?
A: greatly accelerated

Q: And the wound closure ([4]; 24 hours, 250 ng/ml topical at 0 and 16 hours)?
A: 83%

Q: What about the “structural integrity of epithelium (H&E histology)” value ([4]; 48 hours, 250 ng/ml) of the same molecule?
A: regained full integrity

Q: What about the “migration of HCECs vs buffer control” value [5] of the same molecule?
A: significant increase in migration
